Common to all, as to format: cell-based
Test [1] has as its target T1, HLA-A68 (MHC class I) expressed on HeLa cells (Homo sapiens, UniProt P04439, A269V/D140Y/D185E/E176V/E277Q/E87N/F33Y/G231S/I121R/I166T/I218V/L180W/L300P/L318F/N151K/P208A/P217A/Q86R/R138H/R169H/S129P/T345S/V36M).
T1 construct: HLA-A68 (MHC class I) expressed on HeLa; endogenous in cells; host or cells: HeLaM and derivatives (TAPBPR-KO with or without TAPBPR/tapasin constructs, +Her2, Her2-KO, +PDL1, pD-GFP); in some arms HeLaM-HLA-ABC-KO re-expressing HLA-A*68:02
The test is described as follows: ETV* peptide loading on HeLa cells by exogenous mouse TAPBPR.

Test [2] concerns the target T2, HLA-A2 on SKBR3 and MCF-7 cells (Homo sapiens, UniProt P04439, D140Y/D185E/D98H/E176V/E277Q/G131W/G231S/I119V/I121R/I166T/I218V/L300P/L318F/N151K/N90K/P208A/P217A/Q86G/Q94H/R138H/R169H/T345S).
T2 construct: endogenous in cells; host or cells: SKBR3 and MCF-7
The experiment in a line: YLL* peptide loading on breast cancer cell lines. The settings on record: for loading of antigenic peptide onto MCF-7 and SKBR3 cells: 100 nM protein, YLL* peptide. How it is done: (§1) Bar graphs show (B) the binding YLL* peptide and (C) the binding of TCR-like mAb reagent LMP-1 which recognises the EBV specific peptide YLL in the context of HLA-A2, when SKBR3 and MCF-7 cells were incubated with no peptide, peptide alone, or peptide in the presence of 100 nM soluble TAPBPR or 100 nM TAPBPR-Her2 antibody fusion protein.

In another test the target is T3, HLA-A2 (Homo sapiens, UniProt P04439, D140Y/D185E/D98H/E176V/E277Q/G131W/G231S/I119V/I121R/I166T/I218V/L300P/L318F/N151K/N90K/P208A/P217A/Q86G/Q94H/R138H/R169H/T345S).
T3 construct: expressed in transfected cells; host or cells: HeLaM-HLA-ABC-KO
The test is described as follows: NLV* and YLL* viral peptide loading on HeLaM-ABC^KO cells -/+ HLA-A2. The settings on record: for loading of viral peptides NLV* and YLL* onto surface expressed HLA-A2: 10 nM peptide 15 min. How it is done:
For the histograms in A & C 100 nM of the indicated recombinant TAPBPR protein was used. […] The TCR is specific for […] peptide presented on HLA-A2 molecules.

Test [3] deals with T4, YLL/HLA-A2 complexes on SKBR3 and MCF-7 cells (Homo sapiens, UniProt P04439, D140Y/D185E/D98H/E176V/E277Q/G131W/G231S/I119V/I121R/I166T/I218V/L300P/L318F/N151K/N90K/P208A/P217A/Q86G/Q94H/R138H/R169H/T345S).
T4 construct: endogenous in cells; host or cells: SKBR3 and MCF-7
The experiment in a line: TCR-like mAb LMP-1 staining of breast cancer cell lines. As for the experimental part:
as §1

In a further test the target is T5, HLA-A*68:02 (Homo sapiens, UniProt P04439, A269V/D140Y/D185E/E176V/E277Q/E87N/F33Y/G231S/I121R/I166T/I218V/L180W/L300P/L318F/N151K/P208A/P217A/Q86R/R138H/R169H/S129P/T345S/V36M).
T5 construct: HLA-A68 (MHC class I) expressed on HeLa; endogenous in cells; host or cells: HeLaM and derivatives (TAPBPR-KO with or without TAPBPR/tapasin constructs, +Her2, Her2-KO, +PDL1, pD-GFP); in some arms HeLaM-HLA-ABC-KO re-expressing HLA-A*68:02
The experiment in a line: ETV* peptide loading on HeLaM, HeLaM+Her2 and HeLaM^Her2KO cells. The conditions noted are these: Her2-dependent; 10 nM peptide 15 min. The source says:
Note, there is endogenous Her2 on HeLa.

B1: mouse TAPBPR: exogenous luminal domains of mouse TAPBPR; SEQ ID NO: 22 (protein)
chain: DPPTAPTTAERQRQPTDIILDCFLVTEDRHRGAFASSGDRERALLVLKQVPVLDDGSLEGITDFQGSTETKQDSPVIFEASVDLVQIPQAEALLHADCSGKAVTCEISKYFLQARQEATFEKAHWFISNMQVSRGGPSVSMVMKTLRDAEVGAVRHPTLNLPLSAQGTVKTQVEFQVTSETQTLNHLLGSSVSLHCSFSMAPDLDLTGVEWRLQHKGSGQLVYSWKTGQGQAKRKGATLEPEELLRAGNASLTLPNLTLKDEGTYICQISTSLYQAQQIMPLNILAPPKVQLHLANKDPLPSLVCSIAGYYPLDVGVTWIREELGGIPAQVSGASFSSLRQSTMGTYSISSTVMADPGPTGATYTCQVAHVSLEEPLTTSMRVLPNPEQRGT
modifications: luminal domains of mouse TAPBPR
With B1, in test [1], the “loading of ETVSK*QSNV (ETV*) to HLA-A68” value is “shown to load fluorescent human neoantigen peptide” and the “peptide loading efficiency relative to human TAPBPR” value is “less efficient than human TAPBPR”.

B2: TAPBPR-Her2-scFv: recombinant TAPBPR fused to a scFv specific for Her2; SEQ ID NO: 8 (protein)
chain: MGTQEGWCLLLCLALSGAAETKPHPAEGQWRAVDVVLDCFLVKDGAHRGALASSEDRARASLVLKQVPVLDDGSLEDFTDFQGGTLAQDDPPIIFEASVDLVQIPQAEALLHADCSGKEVTCEISRYFLQMTETTVKTAAWFMANVQVSGGGPSISLVMKTPRVAKNEVLWHPTLNLPLSPQGTVRTAVEFQVMTQTQSLSFLLGSSASLDCGFSMAPGLDLISVEWRLQHKGRGQLVYSWTAGQGQAVRKGATLEPAQLGMARDASLTLPGLTIQDEGTYICQITTSLYRAQQIIQLNIQASPKVRLSLANEALLPTLICDIAGYYPLDVVVTWTREELGGSPAQVSGASFSSLRQSVAGTYSISSSLTAEPGSAGATYTCQVTHISLEEPLGASTQVVPPERRHVGGGGSGGGGSGGGGSTSADLGSRAMAQVQLVQSGAEVKKPGESLKISCKGSGYSFTSYWIAWVRQMPGKGLEYMGLIYPGDSDTKYSPSFQGQVTISVDKSVSTAYLQWSSLKPSDSAVYFCARHDVGYCSSSNCAKWPEYFQHWGQGTLVTVSSGGGGSGGGGSGGGGSQSVLTQPPSVSAAPGQKVTISCSGSSSNIGNNYVSWYQQLPGTAPKLLIYDHTNRPAGVPDRFSGSKSGTSASLAISGFRSEDEADYYCASWDYTLSGWVFGGGTKLTVLGAAAGGGGS
modifications: TAPBPR-Her2scFv
For B2, the figures for the “loading of antigenic peptide onto MCF-7 and SKBR3 cells” value in test [2] and in test [2] (listed as TAPBPR-her 2 antibody fusion protein) were “efficiently loads antigenic peptides onto both of these breast cancer cell lines” and “works extremely efficiently on both these breast cancer cell lines”, respectively. For the same molecule, the “peptide loading on SKBR3 cell line” value in test [2] (low MHC I expression) is listed as “efficient peptide loading”. In the test with HLA-A2, the “peptide loading on cells lacking HLA-A, -B and -C expression” value was “no peptide loading was observed”. For the same molecule, the “loading of viral peptides NLV* and YLL* onto surface expressed HLA-A2” value with HLA-A2 is given as “could load fluorescent variants”; in the test with HLA-A2 (listed as TAPBPR-Her2-svFc), “shown to load viral peptides onto HeLa cells expressing HLA-A2”. Also, in test [3], the “YLL/HLA-A2 complexes accessible for TCR binding versus soluble TAPBPR+peptide or peptide alone” value is “significantly more YLL/HLA-A2 complexes were accessible for TCR binding”. Besides, the “binding of TCR-like mAb LMP-1 to treated cells” value in test [3] (fusion protein and peptide) was “bound extremely well”. In the test with HLA-A*68:02, the “loading of exogenous peptide ETV* onto surface of HeLaM cells” value is “very efficient at loading exogenous peptide”.

These data come from patent US12397036B2, “Peptide exchange protein” (Cambridge Enterprise Limited, priority 2018, dated 2025).
